Patent US20050059597A1

Biological target: PSD-95, endogenous, in cultured cortical neurons (mouse) (UniProt Q62108)
Test: cell-based or functional assay

Sequence of PSD-95, endogenous, in cultured cortical neurons (mouse) (Q62108 whole entry): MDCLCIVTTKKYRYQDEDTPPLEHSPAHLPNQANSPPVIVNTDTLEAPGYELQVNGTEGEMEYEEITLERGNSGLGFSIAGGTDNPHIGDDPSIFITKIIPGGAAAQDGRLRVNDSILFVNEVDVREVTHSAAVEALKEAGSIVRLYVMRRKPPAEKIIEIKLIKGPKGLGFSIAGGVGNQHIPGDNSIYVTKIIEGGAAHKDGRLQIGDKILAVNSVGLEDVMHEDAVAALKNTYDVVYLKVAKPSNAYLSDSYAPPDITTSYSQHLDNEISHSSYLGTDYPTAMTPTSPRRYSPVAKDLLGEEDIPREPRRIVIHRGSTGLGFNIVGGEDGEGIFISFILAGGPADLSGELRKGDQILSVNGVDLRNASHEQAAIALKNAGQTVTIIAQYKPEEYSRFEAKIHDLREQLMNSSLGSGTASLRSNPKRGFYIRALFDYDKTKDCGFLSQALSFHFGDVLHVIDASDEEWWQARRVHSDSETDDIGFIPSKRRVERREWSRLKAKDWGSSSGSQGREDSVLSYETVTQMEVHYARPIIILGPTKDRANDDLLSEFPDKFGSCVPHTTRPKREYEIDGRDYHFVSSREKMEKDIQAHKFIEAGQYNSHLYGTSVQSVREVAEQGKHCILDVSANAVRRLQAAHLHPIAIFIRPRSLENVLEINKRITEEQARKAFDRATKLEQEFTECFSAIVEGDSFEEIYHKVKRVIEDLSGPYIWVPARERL

Tat-NR2B9c (peptide)
NMDA-evoked cGMP production in cortical cultures (surrogate of NO production by nNOS): 39.5%
